Reference: the supplement of paper PMC9233669
Fewer inactive variants are shown than the library holds.

Columns and labels:
biotinyl-Met-oxazolone = assay: self-aminoacylation, catalytic enhancement (BMO) (fold over background); higher = more active; k-Seq, kA / k0A0; sequences stand for … in GGGAAUGGAUCCACAUCUACGAAUUC…UUCACUGCAGACUUGACGAAGCUG
Method in brief: (§1)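 Mutagenized RNA pools (0.43 μM; 21-nt variable region) were treated with 2–1250 μM of each biotinyl-aminoacyl-oxazolone. Conditions were 50 μL HEPES/NaCl/KCl/MgCl2/CaCl2 buffer, 5% acetonitrile, pH 6.9–7.0, room temperature, 90 minutes. Catalytic enhancement, the median kA relative to the uncatalyzed rate, was derived from streptavidin capture, qPCR and Illumina sequencing.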

biotinyl-Phe-oxazolone = assay: self-aminoacylation, catalytic enhancement (BFO) (fold over background); higher = more active; k-Seq, kA / k0A0; sequences stand for … in GGGAAUGGAUCCACAUCUACGAAUUC…UUCACUGCAGACUUGACGAAGCUG
Method in brief: as §1

biotinyl-Val-oxazolone = assay: self-aminoacylation, catalytic enhancement (BVO) (fold over background); higher = more active; k-Seq, kA / k0A0; sequences stand for … in GGGAAUGGAUCCACAUCUACGAAUUC…UUCACUGCAGACUUGACGAAGCUG
Method in brief: as §1

biotinyl-Ile-oxazolone = assay: self-aminoacylation, catalytic enhancement (BIO) (fold over background); higher = more active; k-Seq, kA / k0A0; sequences stand for … in GGGAAUGGAUCCACAUCUACGAAUUC…UUCACUGCAGACUUGACGAAGCUG
Method in brief: as §1

biotinyl-Trp-oxazolone = assay: self-aminoacylation, catalytic enhancement (BWO) (fold over background); higher = more active; k-Seq, kA / k0A0; sequences stand for … in GGGAAUGGAUCCACAUCUACGAAUUC…UUCACUGCAGACUUGACGAAGCUG
Method in brief: as §1

biotinyl-Leu-oxazolone = assay: self-aminoacylation, catalytic enhancement (BLO) (fold over background); higher = more active; k-Seq, kA / k0A0; sequences stand for … in GGGAAUGGAUCCACAUCUACGAAUUC…UUCACUGCAGACUUGACGAAGCUG
Method in brief: as §1

| Sequence | self-aminoacylation (biotinyl-Met-oxazolone) | self-aminoacylation (biotinyl-Phe-oxazolone) | self-aminoacylation (biotinyl-Val-oxazolone) | self-aminoacylation (biotinyl-Ile-oxazolone) | self-aminoacylation (biotinyl-Trp-oxazolone) | self-aminoacylation (biotinyl-Leu-oxazolone) |
| --- | --- | --- | --- | --- | --- | --- |
| AGUACCCUGGCCAUCGAGUGA [Fam2.1 aminoacylation ribozyme variant] | 3.41 | 10.2 | 3.11 | 2.53 | 4.09 | 4.09 |
| AGUACCCUGGUCAUCAAGUGA [Fam2.1 aminoacylation ribozyme variant] | 2.28 | 3.2 | 1.75 | 1.61 | 2.89 | 2.35 |
| AGUACCCUGGUCAUCGAGCGA [Fam2.1 aminoacylation ribozyme variant] | 2.19 | 1.16 | 1.9 | 1.94 | 1.89 | 2.28 |
| AGUACCCUGGUCAUCGAUUGA [Fam2.1 aminoacylation ribozyme variant] | 0.999 | 1.09 | 0.981 | 1.09 | 1.58 | 1.07 |
| AGUACCCUGGUCAUCGGGUGA [Fam2.1 aminoacylation ribozyme variant] | 17.7 | 82.1 | 9.99 | 9.32 | 19.6 | 19 |
| AGUACCCUGGUCAUCUAGUGA [Fam2.1 aminoacylation ribozyme variant] | 7.51 | 47.9 | 3.93 | 3.73 | 8.37 | 8.87 |
| AGUACCCUGGUCUUCGAGUGA [Fam2.1 aminoacylation ribozyme variant] | 5.41 | 31.2 | 3.27 | 3.54 | 7.11 | 5.96 |
| AGUCAACUAGGUCAUCGGGUG [Fam2.2 aminoacylation ribozyme variant] | 7.24 | 49.9 | 4.95 | 5.91 | 9.37 | 8.39 |
| AGUCACCUACGUCAUCGGGUG [Fam2.2 aminoacylation ribozyme variant] | 4.95 | 32.4 | 4.21 | 3.49 | 5.27 | 6.83 |
| AGUCACCUAGCUCAUCGGGUG [Fam2.2 aminoacylation ribozyme variant] | 2.42 | 13.9 | 3.12 | 2.6 | 2.81 | 2.79 |
| AGUCACCUAGGCCAUCGGGUG [Fam2.2 aminoacylation ribozyme variant] | 3.86 | 25 | 3.96 | 3.31 | 5.32 | 3.53 |
| AGUCACCUAGGGCAUCGGGUG [Fam2.2 aminoacylation ribozyme variant] | 3.71 | 34.4 | 3.45 | 4.43 | 6.69 | 4.67 |
| AGUCACCUAGGUAAUCGGGUG [Fam2.2 aminoacylation ribozyme variant] | 3.4 | 25.4 | 2.75 | 3.27 | 3.64 | 3.37 |
| AGUCACCUAGGUCAGCGGGUG [Fam2.2 aminoacylation ribozyme variant] | 4.31 | 39.5 | 3.77 | 4.2 | 5.59 | 5.54 |
| AGUCCCCUAGGUCAUCGGGUG [Fam2.2 aminoacylation ribozyme variant] | 12 | 93.9 | 7.97 | 8.61 | 11.4 | 16.9 |
| AUAACCCAGGUCAUCGAGUGA [Fam2.1 aminoacylation ribozyme variant] | 5.5 | 19.3 | 2.95 | 2.67 | 6.13 | 4.72 |
| AUAACCCGGGUCAUCGAGUGA [Fam2.1 aminoacylation ribozyme variant] | 6.42 | 45.7 | 3.29 | 3.78 | 7.61 | 8.98 |
| AUAACCCUCGUCAUCGAGUGA [Fam2.1 aminoacylation ribozyme variant] | 3.43 | 10.7 | 2.13 | 1.89 | 3.79 | 3.59 |
| AUAACCCUGGGCAUCGAGUGA [Fam2.1 aminoacylation ribozyme variant] | 5.93 | 33.7 | 2.59 | 3 | 6.57 | 6 |
| AUAACCCUGGUCACCGAGUGA [Fam2.1 aminoacylation ribozyme variant] | 8.82 | 44 | 4.06 | 4.78 | 10.2 | 9.68 |
| AUAACCCUGGUCAUCGAGUGA [Fam2.1 aminoacylation ribozyme variant] | 19.7 | 69.1 | 8.59 | 8.43 | 18.7 | 18.8 |
| AUAACCCUGGUGAUCGAGUGA [Fam2.1 aminoacylation ribozyme variant] | 6.53 | 36.3 | 3.03 | 3.03 | 7.08 | 6.37 |
| AUAACCCUGUUCAUCGAGUGA [Fam2.1 aminoacylation ribozyme variant] | 3.8 | 12.6 | 2.18 | 2.21 | 4.29 | 3.97 |
| AUACACCAAGGUCAUCGGGUG [Fam2.2 aminoacylation ribozyme variant] | 4.18 | 42.2 | 3.5 | 4.48 | 6.72 | 6.13 |
| AUACACCUAGGUCAUCGCGUG [Fam2.2 aminoacylation ribozyme variant] | 8.65 | 69.7 | 5.01 | 4.68 | 8.07 | 10.4 |
| AUACACCUAGGUCAUCGGGUA [Fam2.2 aminoacylation ribozyme variant] | 5.4 | 8.32 | 4.43 | 4.01 | 5.56 | 6.85 |
